Experimental findings from patent publication US8906858B2, “Method for the prophylactic or therapeutic treatment of glucocorticoid-induced osteoporosis” (Fritz-Lipmann-Institut E. V. Leibniz-Institut Fuer …, priority 2010, dated 2014) are described below.

The test has as its system primary wild type osteoblasts. Kind of test: Soluble factors added to osteoblasts during osteogenic induction in presence or absence of Dex. The test is classed as cell-based, mouse. As to the method:
FIG. 7. Differential gene regulation in GR^dim osteoblasts and bone organs by GCs and involvement of AP-1 in suppression of IL-11 in osteoblast differentiation. (A-E) Primary osteoblasts were grown until confluence and treated as described in FIG. 4A. qRT-PCR-determined mRNA expression levels of GILZ, Per-1, KLF15, Lif (LIF) and II11 (IL-11) after six hours. (F-H) qRT-PCR-determined mRNA expression level of IL-11 in organ cultures of GR mutant fetal hind legs (F), in dN^Runx2Cre osteoblasts (G) and c-jun^null MEFs (H) after six hours treatment. (I) Chromatin immunoprecipitation of MEFs after six hours. […] IgG precipitation served as negative control and amplification of the input as positive control. […] At day 10, ALP activity was determined and at day 20, Alizarin Red staining was performed. (K) Quantification of ALP-positive cells treated as in (J) after 10 days. (L) qRT-PCR-determined Runx2 mRNA expression level in cells treated as in (J) after 10 days.
FIG. 13. Effects of GR regulated soluble factors on osteoblast cell numbers. […] At day 10 cell counts were determined by automatic microscopy. Data are represented as mean+/−SEM. *<0.05.
FIG. 14. Effects of GR regulated soluble factors on osteoblast cell differentiation. Primary wild type osteoblasts were differentiated with or without Dex. At day 10 the specific ALP activity was determined and is depicted as ALP positive cells in percent in the absence or presence of NGF (A), IL-6 (B), EGF (C) and LIF (D). Data are represented as mean+/−SEM. * p<0.05; ** p<0.01.
Primary osteoblasts were isolated from either embryonic (E18.5) or neonatal calvaria by sequential digestions and cultivated as previously described (David et al., 2005). c-Jun-deficient cells were obtained from previously described mice (Schreiber et al., 1999). […] Differentiation of osteoblasts was determined by staining for ALP activity (ALP kit, Sigma or ELF® Phosphatase Detection Kit, ATCC) or by Alizarin Red staining (Sigma) at indicated time points. Apoptosis was detected by In situ Cell Death Detection Kit (Roche), and proliferation with fluorescent immunohistochemistry using mouse anti-Ki-67 (BD Pharmingen™) and Alexa Fluor® 594-labeled donkey anti-mouse IgG (Molecular Probes™). Quantification of the stainings and cell numbers according to DAPI labeling was performed by automated microscopy using Cellomics ArrayScan and software HCS Scan® (Thermo-Fischer). The factors EGF (Calbiochem), NGF2 (Sigma), IL-6 (ImmunoTools), IL-11 (Antigenix America, Inc.) and LIF (Chemicon) were added to the culture after differentiation at concentrations of 0.8, 4 and 20 ng/ml. qRT-PCR was performed as previously described (Tuckermann et al., 2007). Primer information can be provided upon request.

B1: IL-11: recombinant Interleukin-11 (protein, UniProt P20809 22-199, looked up)
Interleukin-11: PGPPPGPPRVSPDPRAELDSTVLLTRSLLADTRQLAAQLRDKFPADGDHNLDSLPTLAMSAGALGALQLPGVLTRLRADLLSYLRHVQWLRRAGGSSLKTLEPELGTLQARLDRLLRRLQLLMSRLALPQPPPDPPAPPLAPPSSAWGGIRAAHAILGGLHLTLDWAVRGLLLLKTRL
Regarding B1, where the note is “day 10, with Dex”, the “rescue of Dex-impaired osteoblast differentiation (ALP positive cells)” value is reported as “potently antagonized” and the “rescue of Dex-reduced osteoblast cell numbers” value is reported as “not rescuing”. The “Dex suppression of ALP activity, of Runx2 expression and calcification” value (in the presence of IL-11) is “fully restored”.

B2: HB-EGF: heparin binding-epidermal growth factor (protein, UniProt Q99075 63-148, looked up)
Heparin-binding EGF-like …: DLQEADLDLLRVTLSSKPQALATPNKEEHGKRKKKGKGLGKKRDPCLRKYKDFCIHGECKYVKELRAPSCICHPGYHGERCHGLSL
B2: the “effect on osteoblast differentiation” value was “inhibitory effect”.
